Experimental data as given in US20190276511A1 (BIONTECH RNA PHARMACEUTICALS, published 2019).
Where two headings read alike, the source gives them in different places.

T1: OX40-Fc (human, UniProt P43489 29-214)
T1 construct: extracellular domain; hinge included for covalent assembly; also called OX40 receptor-Fc fusion protein; not shown: human Fc gamma 1 region including the hinge region
T1 sequence (looked up): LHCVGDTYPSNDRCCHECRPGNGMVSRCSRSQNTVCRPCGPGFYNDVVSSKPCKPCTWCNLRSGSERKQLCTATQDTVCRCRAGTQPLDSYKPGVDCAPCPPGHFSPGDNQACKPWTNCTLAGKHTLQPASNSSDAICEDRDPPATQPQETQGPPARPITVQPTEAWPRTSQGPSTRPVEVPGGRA

T2: CD27-Fc (human, UniProt P26842 20-191)
T2 construct: extracellular domain; hinge included for covalent assembly; also called CD27 receptor-Fc fusion protein; not shown: human Fc gamma 1 region including the hinge region
T2 sequence (looked up): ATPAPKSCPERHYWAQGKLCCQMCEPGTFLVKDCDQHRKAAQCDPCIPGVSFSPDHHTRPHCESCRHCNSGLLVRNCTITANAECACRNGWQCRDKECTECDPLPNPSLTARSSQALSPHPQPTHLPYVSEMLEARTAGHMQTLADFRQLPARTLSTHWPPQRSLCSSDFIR

T3: OX40 receptor on cells (human, UniProt P43489 29-277)
T3 sequence (looked up): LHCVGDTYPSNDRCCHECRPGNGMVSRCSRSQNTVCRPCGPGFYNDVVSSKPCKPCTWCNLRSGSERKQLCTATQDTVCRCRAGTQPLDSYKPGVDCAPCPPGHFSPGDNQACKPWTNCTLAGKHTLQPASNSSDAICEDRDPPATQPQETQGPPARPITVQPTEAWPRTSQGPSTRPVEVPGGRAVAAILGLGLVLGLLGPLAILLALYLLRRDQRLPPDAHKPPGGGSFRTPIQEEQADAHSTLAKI


Columns and labels:
4-1BB-Fc = target: T4, 4-1BB-Fc (human, UniProt Q07011 24-186); assay: ELISA, coated receptor-Fc
T4 construct: extracellular domain; hinge included for covalent assembly; also called 4-1BB receptor-Fc fusion protein; not shown: human Fc gamma 1 region including the hinge region

OX40-Fc = target: T1, OX40-Fc; assay: ELISA, coated receptor-Fc
CD40 receptor on cells [1] = target: T5, CD40 receptor on cells (human, UniProt P25942 21-277); assay: cell-based or functional assay
CD40-Fc [2] = target: T6, CD40-Fc (human, UniProt P25942 21-193); assay: ELISA, coated receptor-Fc
T6 construct: extracellular domain; hinge included for covalent assembly; also called CD40 receptor-Fc fusion protein; not shown: human Fc gamma 1 region including the hinge region
Protocol: (§1) Receptor binding of the single-chain Duokines was analyzed by ELISA using fusion proteins of the extracellular region of CD40, CD27, 4-1BB and OX40, respectively, with the human Fcγ1 region including the hinge region for covalent assembly (CD40-Fc, CD27-Fc, 4-1BB-Fc, OX40-Fc). Receptor-Fc fusion proteins (200 ng/well) were coated overnight at 4° C. and remaining binding sites were blocked with PBS, 2% skimmed milk powder (2% MPBS). […] The interactions between scDuokine and receptor were dose-dependent with EC₅₀ values in the low nanomolar ranges (FIG. 11 AB, Tab. 2).

CD27-Fc [3] = target: T2, CD27-Fc; assay: ELISA, coated receptor-Fc
Protocol: as §1

CD40-Fc [4] = target: T6, CD40-Fc; assay: ELISA, coated receptor-Fc; remark: listed apart in the source
Protocol: (§2) Receptor binding of the Duokines was analyzed by ELISA using fusion proteins of the extracellular region of CD40, CD27, 4-1BB and OX40, respectively, with the human Fcγ1 region including the hinge region for covalent assembly (CD40-Fc, CD27-Fc, 4-1BB-Fc, OX40-Fc). Receptor-Fc fusion proteins (200 ng/well) were coated overnight at 4° C. and remaining binding sites were blocked with PBS, 2% skimmed milk powder (2% MPBS).

CD27-Fc [5] = target: T2, CD27-Fc; assay: ELISA, coated receptor-Fc; remark: listed apart in the source
Protocol: as §2

CD40 receptor on cells [6] = target: T5, CD40 receptor on cells; assay: cell-based or functional assay; remark: listed apart in the source
CD40-Fc [7] = target: T6, CD40-Fc; assay: ELISA, coated receptor-Fc; remark: listed apart in the source
OX40 receptor on cells [8] = target: T3, OX40 receptor on cells; assay: cell-based or functional assay
OX40 receptor on cells [9] = target: T3, OX40 receptor on cells; assay: cell-based or functional assay; remark: listed apart in the source

T5 sequence (P25942 21-277): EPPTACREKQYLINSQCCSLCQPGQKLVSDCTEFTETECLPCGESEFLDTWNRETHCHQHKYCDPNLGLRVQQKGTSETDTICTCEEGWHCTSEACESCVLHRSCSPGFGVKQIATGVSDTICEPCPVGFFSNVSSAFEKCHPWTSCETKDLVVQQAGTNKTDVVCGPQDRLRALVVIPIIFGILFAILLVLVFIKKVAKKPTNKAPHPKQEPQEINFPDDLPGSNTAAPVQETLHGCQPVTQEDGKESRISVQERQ
T6 sequence (P25942 21-193 limits assumed): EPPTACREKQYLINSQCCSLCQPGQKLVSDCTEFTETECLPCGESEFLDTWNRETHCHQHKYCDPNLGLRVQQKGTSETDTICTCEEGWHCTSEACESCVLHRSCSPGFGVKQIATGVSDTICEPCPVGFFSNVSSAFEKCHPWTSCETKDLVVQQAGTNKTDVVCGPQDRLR

Binder	binding result (4-1BB-Fc)	binding result (OX40-Fc)	Receptor activation (EC50, nM) (CD40 receptor on cells [1]) [nM]	EC50 (CD40-Fc [2]) [nM]	EC50 (CD27-Fc [3]) [nM]	EC50 (CD40-Fc [4]) [nM]	EC50 (CD27-Fc [5]) [nM]	Receptor activation (EC50, nM) (CD40 receptor on cells [6]) [nM]	binding result (CD40-Fc [7])	Receptor activation (EC50, nM) (OX40 receptor on cells [8]) [nM]	Receptor activation (EC50, nM) (OX40 receptor on cells [9]) [nM]
CD40L-CD27L (ligand, Duokine from HEK293, FLAG-purified; VH leader left out; homotrimer by SEC; also called Duokine CD40L-CD27L; not shown: N-terminal FLAG tag) GDQNPQIAAHVISEASSKTTSVLQWAEKGYYTMSNNLVTLENGKQLTVKRQGLYYIYAQVTFCSNREASSQAPFIASLCLKSPGRFERILLRAANTHSSAKPCGQQSIHLGGVFELQPGASVFVNVTDPSQVSHGTGFTSFGLLKLGGGGSGGGGSGGGGSSLGWDVAELQLNHTGPQQDPRLYWQGGPALGRSFLHGPELDKGQLRIHRDGIYMVHIQVTLAICSSTTASRHHPTTLAVGICSPASRSISLLRLSFHQGCTIASQRLTPLARGDTLCTNLTGTLLPSRNTDETFFGVQWVRP	no binding (tested: 100 nM (FIG. 4))	no binding (tested: 100 nM (FIG. 4))	–	–	–	8.06	3.15	2.36	–	–	–
scCD27L-scCD40L (ligand, scDuokine from HEK293, FLAG-purified; VH leader left out; also called single-chain Duokine scCD27L-scCD40L; not shown: N-terminal FLAG tag) SLGWDVAELQLNHTGPQQDPRLYWQGGPALGRSFLHGPELDKGQLRIHRDGIYMVHIQVTLAICSSTTASRHHPTTLAVGICSPASRSISLLRLSFHQGCTIASQRLTPLARGDTLCTNLTGTLLPSRNTDETFFGVQWVRPGGGSGGGSLGWDVAELQLNHTGPQQDPRLYWQGGPALGRSFLHGPELDKGQLRIHRDGIYMVHIQVTLAICSSTTASRHHPTTLAVGICSPASRSISLLRLSFHQGCTIASQRLTPLARGDTLCTNLTGTLLPSRNTDETFFGVQWVRPGGGSGGGSLGWDVAELQLNHTGPQQDPRLYWQGGPALGRSFLHGPELDKGQLRIHRDGIYMVHIQVTLAICSSTTASRHHPTTLAVGICSPASRSISLLRLSFHQGCTIASQRLTPLARGDTLCTNLTGTLLPSRNTDETFFGVQWVRPGGGGSGGGTGGGGSGDQNPQIAAHVISEASSKTTSVLQWAEKGYYTMSNNLVTLENGKQLTVKRQGLYYIYAQVTFCSNREASSQAPFIASLCLKSPGRFERILLRAANTHSSAKPCGQQSIHLGGVFELQPGASVFVNVTDPSQVSHGTGFTSFGLLKLGGGSGGGGDQNPQIAAHVISEASSKTTSVLQWAEKGYYTMSNNLVTLENGKQLTVKRQGLYYIYAQVTFCSNREASSQAPFIASLCLKSPGRFERILLRAANTHSSAKPCGQQSIHLGGVFELQPGASVFVNVTDPSQVSHGTGFTSFGLLKLGGGSGGGGDQNPQIAAHVISEASSKTTSVLQWAEKGYYTMSNNLVTLENGKQLTVKRQGLYYIYAQVTFCSNREASSQAPFIASLCLKSPGRFERILLRAANTHSSAKPCGQQSIHLGGVFELQPGASVFVNVTDPSQVSHGTGFTSFGLLKL	no binding (tested: 100 nM (FIG. 10))	no binding (tested: 100 nM (FIG. 10))	3.7	8.04	3.3	–	–	–	–	–	–
CD27L-CD40L (ligand, Duokine from HEK293, FLAG-purified; VH leader left out; homotrimer by SEC; also called Duokine CD27L-CD40L; not shown: N-terminal FLAG tag) SLGWDVAELQLNHTGPQQDPRLYWQGGPALGRSFLHGPELDKGQLRIHRDGIYMVHIQVTLAICSSTTASRHHPTTLAVGICSPASRSISLLRLSFHQGCTIASQRLTPLARGDTLCTNLTGTLLPSRNTDETFFGVQWVRPGGGGSGGGGSGGGGSGDQNPQIAAHVISEASSKTTSVLQWAEKGYYTMSNNLVTLENGKQLTVKRQGLYYIYAQVTFCSNREASSQAPFIASLCLKSPGRFERILLRAANTHSSAKPCGQQSIHLGGVFELQPGASVFVNVTDPSQVSHGTGFTSFGLLKL	no binding (tested: 100 nM (FIG. 4))	no binding (tested: 100 nM (FIG. 4))	–	–	–	3.31	5.9	2.99	–	–	–
scOX40L-scCD27L (ligand, scDuokine from HEK293, FLAG-purified; VH leader left out; also called single-chain Duokine scOX40L-scCD27L; not shown: N-terminal FLAG tag) QVSHRYPRIQSIKVQFTEYKKEKGFILTSQKEDEIMKVQNNSVIINCDGFYLISLKGYFSQEVNISLHYQKDEEPLFQLKKVRSVNSLMVASLTYKDKVYLNVTTDNTSLDDFHVNGGELILIHQNPGEFCVLGGGSGGGQVSHRYPRIQSIKVQFTEYKKEKGFILTSQKEDEIMKVQNNSVIINCDGFYLISLKGYFSQEVNISLHYQKDEEPLFQLKKVRSVNSLMVASLTYKDKVYLNVTTDNTSLDDFHVNGGELILIHQNPGEFCVLGGGSGGGQVSHRYPRIQSIKVQFTEYKKEKGFILTSQKEDEIMKVQNNSVIINCDGFYLISLKGYFSQEVNISLHYQKDEEPLFQLKKVRSVNSLMVASLTYKDKVYLNVTTDNTSLDDFHVNGGELILIHQNPGEFCVLGGGGSGGGTGGGGSSLGWDVAELQLNHTGPQQDPRLYWQGGPALGRSFLHGPELDKGQLRIHRDGIYMVHIQVTLAICSSTTASRHHPTTLAVGICSPASRSISLLRLSFHQGCTIASQRLTPLARGDTLCTNLTGTLLPSRNTDETFFGVQWVRPGGGSGGGSLGWDVAELQLNHTGPQQDPRLYWQGGPALGRSFLHGPELDKGQLRIHRDGIYMVHIQVTLAICSSTTASRHHPTTLAVGICSPASRSISLLRLSFHQGCTIASQRLTPLARGDTLCTNLTGTLLPSRNTDETFFGVQWVRPGGGSGGGSLGWDVAELQLNHTGPQQDPRLYWQGGPALGRSFLHGPELDKGQLRIHRDGIYMVHIQVTLAICSSTTASRHHPTTLAVGICSPASRSISLLRLSFHQGCTIASQRLTPLARGDTLCTNLTGTLLPSRNTDETFFGVQWVRP	no binding (tested: 100 nM (FIG. 10))	–	–	–	4.62	–	–	–	no binding (tested: 100 nM (FIG. 10))	–	1.27

Second part, the binder after the results:

binding result (4-1BB-Fc)	binding result (OX40-Fc)	Receptor activation (EC50, nM) (CD40 receptor on cells [1]) [nM]	EC50 (CD40-Fc [2]) [nM]	EC50 (CD27-Fc [3]) [nM]	EC50 (CD40-Fc [4]) [nM]	EC50 (CD27-Fc [5]) [nM]	Receptor activation (EC50, nM) (CD40 receptor on cells [6]) [nM]	binding result (CD40-Fc [7])	Receptor activation (EC50, nM) (OX40 receptor on cells [8]) [nM]	Receptor activation (EC50, nM) (OX40 receptor on cells [9]) [nM]	Binder
no binding (tested: 100 nM (FIG. 10))	no binding (tested: 100 nM (FIG. 10))	3.1	4.26	3.42	–	–	–	–	–	–	scCD40L-scCD27L (ligand, scDuokine from HEK293, FLAG-purified; VH leader left out; also called single-chain Duokine scCD40L-scCD27L; not shown: N-terminal FLAG tag) GDQNPQIAAHVISEASSKTTSVLQWAEKGYYTMSNNLVTLENGKQLTVKRQGLYYIYAQVTFCSNREASSQAPFIASLCLKSPGRFERILLRAANTHSSAKPCGQQSIHLGGVFELQPGASVFVNVTDPSQVSHGTGFTSFGLLKLGGGSGGGGDQNPQIAAHVISEASSKTTSVLQWAEKGYYTMSNNLVTLENGKQLTVKRQGLYYIYAQVTFCSNREASSQAPFIASLCLKSPGRFERILLRAANTHSSAKPCGQQSIHLGGVFELQPGASVFVNVTDPSQVSHGTGFTSFGLLKLGGGSGGGGDQNPQIAAHVISEASSKTTSVLQWAEKGYYTMSNNLVTLENGKQLTVKRQGLYYIYAQVTFCSNREASSQAPFIASLCLKSPGRFERILLRAANTHSSAKPCGQQSIHLGGVFELQPGASVFVNVTDPSQVSHGTGFTSFGLLKLGGGGSGGGTGGGGSSLGWDVAELQLNHTGPQQDPRLYWQGGPALGRSFLHGPELDKGQLRIHRDGIYMVHIQVTLAICSSTTASRHHPTTLAVGICSPASRSISLLRLSFHQGCTIASQRLTPLARGDTLCTNLTGTLLPSRNTDETFFGVQWVRPGGGSGGGSLGWDVAELQLNHTGPQQDPRLYWQGGPALGRSFLHGPELDKGQLRIHRDGIYMVHIQVTLAICSSTTASRHHPTTLAVGICSPASRSISLLRLSFHQGCTIASQRLTPLARGDTLCTNLTGTLLPSRNTDETFFGVQWVRPGGGSGGGSLGWDVAELQLNHTGPQQDPRLYWQGGPALGRSFLHGPELDKGQLRIHRDGIYMVHIQVTLAICSSTTASRHHPTTLAVGICSPASRSISLLRLSFHQGCTIASQRLTPLARGDTLCTNLTGTLLPSRNTDETFFGVQWVRP
no binding (tested: 100 nM (FIG. 4))	–	–	–	–	–	1.7	–	no binding (tested: 100 nM (FIG. 4))	6.58	–	OX40L-CD27L (ligand, Duokine from HEK293, FLAG-purified; VH leader left out; homotrimer by SEC; also called Duokine OX40L-CD27L; not shown: N-terminal FLAG tag) QVSHRYPRIQSIKVQFTEYKKEKGFILTSQKEDEIMKVQNNSVIINCDGFYLISLKGYFSQEVNISLHYQKDEEPLFQLKKVRSVNSLMVASLTYKDKVYLNVTTDNTSLDDFHVNGGELILIHQNPGEFCVLGGGGSGGGGSGGGGSSLGWDVAELQLNHTGPQQDPRLYWQGGPALGRSFLHGPELDKGQLRIHRDGIYMVHIQVTLAICSSTTASRHHPTTLAVGICSPASRSISLLRLSFHQGCTIASQRLTPLARGDTLCTNLTGTLLPSRNTDETFFGVQWVRP
